Earlier results in article PMC10060530.
pKd: −log10 of the molar value.

What was measured:
[1] = molecular target: NaV1.2 (Rattus norvegicus) (UniProt P04775)
[2] = molecular target: NaV1.4 (Rattus norvegicus) (UniProt P15390)
[3] = molecular target: NaV1.7 (Homo sapiens) (UniProt Q15858)
UniProt Q15858, sequence (Q15858 whole entry): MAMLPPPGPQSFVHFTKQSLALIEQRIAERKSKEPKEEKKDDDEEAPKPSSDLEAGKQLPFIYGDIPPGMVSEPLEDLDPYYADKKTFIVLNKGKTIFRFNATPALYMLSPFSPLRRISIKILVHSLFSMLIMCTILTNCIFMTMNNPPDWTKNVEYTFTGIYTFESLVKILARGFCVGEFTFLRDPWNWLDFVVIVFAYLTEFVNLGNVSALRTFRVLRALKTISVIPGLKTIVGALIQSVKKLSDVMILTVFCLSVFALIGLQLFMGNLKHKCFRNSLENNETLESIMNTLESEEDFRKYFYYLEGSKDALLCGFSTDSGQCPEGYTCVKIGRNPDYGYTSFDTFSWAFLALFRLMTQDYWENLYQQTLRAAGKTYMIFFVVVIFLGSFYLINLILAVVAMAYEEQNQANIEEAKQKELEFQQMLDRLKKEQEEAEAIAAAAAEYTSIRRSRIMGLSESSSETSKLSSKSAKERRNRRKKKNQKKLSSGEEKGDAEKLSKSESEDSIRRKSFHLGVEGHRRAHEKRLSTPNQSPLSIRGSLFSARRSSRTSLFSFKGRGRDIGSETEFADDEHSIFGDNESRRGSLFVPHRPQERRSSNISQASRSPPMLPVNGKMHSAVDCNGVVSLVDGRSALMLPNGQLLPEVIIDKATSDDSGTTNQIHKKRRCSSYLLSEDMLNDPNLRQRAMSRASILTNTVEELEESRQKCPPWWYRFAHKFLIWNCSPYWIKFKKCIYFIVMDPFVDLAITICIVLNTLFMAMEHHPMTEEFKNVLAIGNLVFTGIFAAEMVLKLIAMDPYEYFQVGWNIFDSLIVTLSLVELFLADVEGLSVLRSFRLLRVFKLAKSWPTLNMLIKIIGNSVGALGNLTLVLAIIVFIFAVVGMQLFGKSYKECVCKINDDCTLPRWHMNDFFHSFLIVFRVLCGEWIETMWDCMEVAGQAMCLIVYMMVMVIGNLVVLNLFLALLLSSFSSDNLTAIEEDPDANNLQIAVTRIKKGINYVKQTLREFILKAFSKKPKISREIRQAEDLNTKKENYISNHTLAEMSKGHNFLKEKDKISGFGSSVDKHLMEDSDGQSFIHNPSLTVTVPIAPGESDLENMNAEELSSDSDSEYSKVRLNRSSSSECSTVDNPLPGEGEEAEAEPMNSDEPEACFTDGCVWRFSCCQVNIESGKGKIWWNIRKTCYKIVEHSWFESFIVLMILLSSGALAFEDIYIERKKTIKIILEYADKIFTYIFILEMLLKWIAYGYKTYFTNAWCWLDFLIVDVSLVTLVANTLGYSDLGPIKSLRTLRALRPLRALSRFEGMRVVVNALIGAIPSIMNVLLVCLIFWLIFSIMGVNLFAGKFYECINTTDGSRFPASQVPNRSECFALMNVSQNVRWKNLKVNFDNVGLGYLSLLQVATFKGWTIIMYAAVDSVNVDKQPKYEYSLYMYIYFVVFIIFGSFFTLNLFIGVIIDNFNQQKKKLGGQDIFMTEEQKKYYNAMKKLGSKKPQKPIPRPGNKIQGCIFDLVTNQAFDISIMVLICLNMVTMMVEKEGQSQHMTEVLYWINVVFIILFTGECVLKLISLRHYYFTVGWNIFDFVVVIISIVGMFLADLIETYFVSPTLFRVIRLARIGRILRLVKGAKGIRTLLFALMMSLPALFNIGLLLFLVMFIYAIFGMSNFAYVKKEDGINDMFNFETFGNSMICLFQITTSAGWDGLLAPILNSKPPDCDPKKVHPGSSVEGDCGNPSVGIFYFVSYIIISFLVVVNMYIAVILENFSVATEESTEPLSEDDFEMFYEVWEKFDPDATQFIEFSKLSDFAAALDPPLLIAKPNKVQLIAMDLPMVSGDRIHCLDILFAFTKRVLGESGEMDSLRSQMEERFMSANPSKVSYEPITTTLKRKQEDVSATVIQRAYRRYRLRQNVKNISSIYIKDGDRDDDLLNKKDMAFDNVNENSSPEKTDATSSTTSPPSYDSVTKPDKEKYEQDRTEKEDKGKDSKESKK

UniProt P04775, sequence (P04775 whole entry): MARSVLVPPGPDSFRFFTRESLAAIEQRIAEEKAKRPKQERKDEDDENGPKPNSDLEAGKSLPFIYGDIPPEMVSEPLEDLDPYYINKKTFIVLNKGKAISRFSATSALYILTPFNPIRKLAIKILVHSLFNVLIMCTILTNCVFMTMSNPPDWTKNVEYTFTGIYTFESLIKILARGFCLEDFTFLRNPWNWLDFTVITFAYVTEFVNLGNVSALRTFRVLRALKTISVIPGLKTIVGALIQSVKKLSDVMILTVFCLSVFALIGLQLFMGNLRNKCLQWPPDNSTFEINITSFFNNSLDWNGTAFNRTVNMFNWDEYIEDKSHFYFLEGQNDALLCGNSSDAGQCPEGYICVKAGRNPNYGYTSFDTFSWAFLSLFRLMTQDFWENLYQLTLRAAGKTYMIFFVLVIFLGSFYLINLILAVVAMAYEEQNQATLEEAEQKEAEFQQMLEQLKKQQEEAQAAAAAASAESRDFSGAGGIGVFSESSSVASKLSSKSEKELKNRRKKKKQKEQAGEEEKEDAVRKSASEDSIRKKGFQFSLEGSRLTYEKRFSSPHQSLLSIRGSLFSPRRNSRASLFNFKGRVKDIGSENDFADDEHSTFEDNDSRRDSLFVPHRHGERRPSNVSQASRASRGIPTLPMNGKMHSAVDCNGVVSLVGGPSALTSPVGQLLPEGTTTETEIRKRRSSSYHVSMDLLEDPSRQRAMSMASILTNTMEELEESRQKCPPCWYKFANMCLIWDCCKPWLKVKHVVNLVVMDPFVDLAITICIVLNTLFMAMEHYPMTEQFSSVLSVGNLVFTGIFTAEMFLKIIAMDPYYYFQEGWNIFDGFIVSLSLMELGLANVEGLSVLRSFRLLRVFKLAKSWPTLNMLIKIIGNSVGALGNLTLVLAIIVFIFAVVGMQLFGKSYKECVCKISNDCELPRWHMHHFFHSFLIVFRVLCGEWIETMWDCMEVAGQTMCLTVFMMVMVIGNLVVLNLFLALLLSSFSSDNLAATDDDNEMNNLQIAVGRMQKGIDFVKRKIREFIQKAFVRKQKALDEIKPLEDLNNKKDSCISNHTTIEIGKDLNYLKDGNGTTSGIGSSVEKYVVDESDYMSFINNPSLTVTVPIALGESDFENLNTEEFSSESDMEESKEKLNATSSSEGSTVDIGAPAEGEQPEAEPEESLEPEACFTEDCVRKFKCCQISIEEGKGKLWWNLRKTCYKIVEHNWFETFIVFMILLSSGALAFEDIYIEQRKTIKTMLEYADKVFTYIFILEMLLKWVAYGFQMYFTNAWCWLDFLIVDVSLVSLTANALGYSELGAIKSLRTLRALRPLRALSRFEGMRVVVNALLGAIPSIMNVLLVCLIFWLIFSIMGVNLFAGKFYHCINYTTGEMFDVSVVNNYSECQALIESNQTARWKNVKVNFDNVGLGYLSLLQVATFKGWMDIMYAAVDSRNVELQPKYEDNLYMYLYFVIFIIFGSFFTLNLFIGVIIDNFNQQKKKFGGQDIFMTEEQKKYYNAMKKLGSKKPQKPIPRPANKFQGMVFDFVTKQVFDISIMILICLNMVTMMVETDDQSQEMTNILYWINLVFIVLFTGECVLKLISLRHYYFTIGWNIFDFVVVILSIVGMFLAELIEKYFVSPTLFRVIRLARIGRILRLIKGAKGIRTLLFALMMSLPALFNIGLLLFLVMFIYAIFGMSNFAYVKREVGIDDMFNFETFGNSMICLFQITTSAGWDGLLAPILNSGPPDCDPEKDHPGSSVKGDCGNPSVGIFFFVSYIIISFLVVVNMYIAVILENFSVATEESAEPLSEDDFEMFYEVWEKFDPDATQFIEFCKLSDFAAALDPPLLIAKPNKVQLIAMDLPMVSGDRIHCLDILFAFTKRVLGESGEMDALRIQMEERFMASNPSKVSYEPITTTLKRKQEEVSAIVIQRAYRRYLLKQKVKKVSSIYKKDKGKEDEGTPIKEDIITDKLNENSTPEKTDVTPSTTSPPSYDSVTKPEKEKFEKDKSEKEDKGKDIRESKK

For “mu-conotoxin KIIIA (from UniProt P0C195)”, the pKd [1] is given as 8.30, the pKd [2] is given as 7.43 and the pKd [3] is given as 7.01.
